# Patent publication US12527862B2, “Bactericidal/permeability increasing protein for use in a method of immunization, preferably as an adjuvant in a method of vaccination” (UNIVERSITÄT REGENSBURG, priority 2018, dated 2026)
# Key:
# naïve CD4+ T cells = experiment: T cell activation assay with naïve CD4+ T cells and dendritic cell-derived supernatant; type: cell-based, C57BL/6J mice; conditions: DC supernatant after BPI 200 nM ± ODN 1826 20 nM, aCD3 and aCD28, day five, Luminex, n=3 (FIG. 13A-C)
# Protocol: Naive CD4+CD25-CD44-CD62L+ T cells were isolated from peripheral lymph nodes and spleen of C57BL/6J mice and purified by MACS and FACS. Naïve CD4+ T cells were cultured in the presence of aCD3 and aCD28 antibodies and dendritic cell-derived supernatant after stimulation with BPI (SN BPI, BPI 200 nM) or after stimulation with ODN 1826 (SN CpG, ODN 1826 20 nM) or after stimulation with BPI and ODN 1826 (SN BPI+CpG, BPI 200 nM, ODN 1826 20 nM) or supernatant without addition of BPI or ODN 1826 (SN NT). On day five, cytokine levels were measured by Luminex. • A. Th1 differentiation as shown by detection of IFNγ (n=3). • B. Th17 differentiation as shown by detection of IL-17 (n=3). • C. […] Lymph node cells were stimulated with aCD3 and aCD28 antibodies and SN BPI or SN NT and incubated for 6h before adding a protein transport inhibitor cocktail and incubating for additional 16h. […]
# To isolate CD4+SC and pLNC, cells isolated from spleen and peripheral lymph nodes (see 2.1.3) were sorted by magnetic cell sorting (MACS), using a CD4+ T cell isolation kit (#130-104-454, Miltenyi Biotec). […] The flow-through, containing unlabeled CD4+ cells, was collected and cell number was determined using a hemocytometer. CD4+SC and pLNC were used in experiments or labeled with fluorescent antibodies against non-naïve T cell markers for fluorescence activated cell sorting (FACS) of naïve CD4+ T cells. […]
# [1] = test system: co-culture of lymphnode cells (LNCs) and dendritic cells (DCs); experiment: Co-culture of lymph node cells and BMDCs, cytokine secretion; type: cell-based, C57BL/6J mice; conditions: BPI 200 nM, n=5 (FIG. 12)
# Protocol: All methods mentioned in this example were carried out as described in the preceding examples. Peripheral lymph nodes of C57BL/6J mice were collected to obtain lymph node cells. The cells were isolated by pressing the lymph nodes through a […] cell strainer, flushing the homogenate with either RPMI-VLE or PBS, and collecting the cell dispersion in a 50 ml falcon tube. The suspension was centrifuged (300×g, 21° C., 8 min) and the cell pellet was resuspended in 2 to 5 ml of cell culture medium (VLE-RPMI 1640 medium containing glutamine supplemented with 10% heat-inactivated FCS, 10% penicillin-streptomycin and 50 μM sterile-filtered β-Mercaptoethanol). After this procedure the cell suspension was washed once or twice in cell culture medium or PBS by centrifugation (300×g, 21° C., 8 min). BMDCs were seeded and co-cultured with a threefold excess of peripheral lymph node cells in the presence or absence of BPI (200 nM) in in cell culture medium. Supernatans were collected and measured as described in preceding examples.
molecule,measurement,setting,value
"bactericidal/permeability-increasing protein (protein, labeled with NT647 (Monolith NT Protein Labeling Kit RED-NHS) in the MST experiments, recombinant human BPI, aa32-487 of huBPI with N-terminal HA signal peptide, expressed in HEK293T cells) RIKIPDYSDSFKIKHLGKGHYSFYSMDIREFQLPSSQISMVPNVGLKFSISNANIKISGKWKAQKRFLKMSGNFDLSIEGMSISADLKLGSNPTSGKPTITCSSCSSHINSVHVHISKSKVGWLIQLFHKKIESALRNKMNSQVCEKVTNSVSSELQPYFQTLPVMTKIDSVAGINYGLVAPPATTAETLDVQMKGEFYSENHHNPPPFAPPVMEFPAAHDRMVYLGLSDYFFNTAGLVYQEAGVLKMTLRDDMIPKESKFRLTTKFFGTFLPEVAKKFPNMKIQIHVSASTPPHLSVQPTGLTFYPAVDVQAFAVLPNSSLASLFLIGMHTTGSMEVSAESNRLVGELKLDRLLLELKHSNIGPFPVELLQDIMNYIVPILVLPRVNEKLQKGFPLPTPARVQLYNVVLQPHQNFLLFGADVVYK","activation and differentiation of naïve T cells into Th1, Th17 and Th22 cells (IFNγ, IL-17, IL-22)",naïve CD4+ T cells,"promotes not only activation but also differentiation of naïve T cells into Th1, Th17 and Th22 cells"
same,secretion of IL-4 in co-culture of LNCs and BMDCs,[1],not observed
same,secretion of IFNγ and IL-17 in co-culture of LNCs and BMDCs,[1]; threefold excess of lymph node cells,Significant secretion
